From US20220306710A1 (YEDA RESEARCH AND DEVELOPMENT, published 2022) come the findings set out here.

The target in test [1] is T1, Tau2 peptide labelled with rhodamine (human, also: rhodamine isothiocyanate label, site not given here).
T1 construct: also called Tau2R; Tau-2R
T1 peptide: KPGGGQVEVKSEKLDFK
Kind of test: dot blot of mixed labelled peptides on nitrocellulose. An excerpt: (§1) FIGS. 2A-B. Confirmation of APP and Tau peptide binding by visualization and ELISA. A) Visualization of APP and Tau peptide binding labelled by fluorescein (F) or rhodamine (R). Single labelled peptides were loaded on nitrocellulose membrane [upper row (F) and middle row (R)]. Mixtures were loaded (lower row) from left to right: APP1F+Tau1R, APP1F+Tau2R, APP2F+Tau1R and APP2F+Tau2R. Last sample was a control of APP2F+APP1R. […] B) Peptide inhibition of Tau and APP protein binding. An ELISA plate was coated with Tau protein overnight (ON) at 4° C. PBS, single peptides or their combinations were incubated ON at 4° C. as well. Next day, the plate was washed and blocked with PBS+3% BSA for two hours at RT. The plate was washed again with PBS. Single peptides or their combinations were added to the coated plate for four hours at RT. The plate was washed and APP protein was added to all wells for ON incubation at 4° C. The plate was then washed and anti Aß was added, to test the ability of the different peptides to affect APP protein binding to the Tau coated plate. The plate was developed with anti-mouse HRP (materials and methods section). Samples were in triplicates. Significance labelled as p≤0.05*, p≤0.008**.
(§2) All four candidate peptides were labelled with fluorescein. APP1, Tau1 and Tau2 were also labelled with rhodamine for visualization of peptide binding.

Test [2] has as its target T2, Tau1 peptide labelled with rhodamine (human, also: rhodamine isothiocyanate label, site not given here).
T2 construct: also called Tau1R; Tau-1R
T2 peptide: GLGDRKDQGGYTMHQD
The description is as above.
Text: as §1, §2

Where no end group is shown, it is not given here.

As to HFQKAKERLEAKHRERMSQVMRE (also: fluorescein isothiocyanate label, site not given here, also called APP1F; App1F) [APP1 peptide labelled with fluorescein], the binding result in test [1] and in test [2] was “binds” in each case.
In the case of ATVIVITLVMLKKKQYTS (also: fluorescein isothiocyanate label, site not given here, also called APP2F) [APP2 peptide labelled with fluorescein], the binding result in test [1] and in test [2] was “no binding” each time.
